Data published in patent US20180362628A1 (KYMAB, published 2018).
Residue numbers refer to the chain shown, from its start.

B1: Antibody 666 Fab (Fab, V domains shown)
VH: QVQLVQSGAEVKKPGASVKVSCKASGYTFTNYAMHWVRQAPGQRLEWMGWINAGNGNTKYSQNFQGRVTITRDTSASTAYMELSSLRSEDTAVYYCARDEYYASGSYYDYYYYGMDVWGQGTTVTVTS
VL: QSALTQPASVSGSPGQSITISCTGTSSDVGVYNYVSWFQQHPGKAPKLMIYNVSKRPSGVSNRFSGSKSGNTASLTISGLQAEDEADYYCCSYAGSSTWVFGGGTNLTVL
notes: recombinant human Fab from CHO-3E7 cells, purified on nickel columns
B2: Antibody 668 Fab (Fab, V domains shown)
VH: QVQLVQSGAEVKKPGASVKVSCKASGFTFTDYAMHWVRQAPGQRLEWMGWINAGNGYTKYSQKFQDRLTITRDTFASTVYMELSSLRSEDTTVYYCARDGFCPSNTCSGYYGMDVWGQGTTVTVSS
VL: QSALTQPASVSGSPGQSITISCTGTSSDVGSYNYVSWYQQHPGKAPKLMIYDVNTRPSGVSIRFSASKSGNTASLTVSGLQAEDEAVYYCSSYAGSSTWVFGGGTKLTVL
notes: as for B1
B3: Antibody 667 Fab (Fab, V domains shown)
VH: QVQLVQSGAEVKKPGASVKVSCRASGYTFTNYAMHWVRQAPGQRLEWMGWINAGNGYTKYSQKFQDRVTITRDTSATTAYMELSSLRSEDTAMYYCARDSFYDILSGPVYHYYGMDVWGQGTTVTVSS
VL: QSALTQPDSVSGSPGQSITISCTGTSNDVGIYNHVSWYQQHPGKAPKLMIYDVNKRPSGISNRFSGSKSGDTASLTISGLQAEDEADYYCCSYAGSSAWVFGGGTKLTVL
notes: as for B1
B4: CL-141766 (antibody, V domains shown)
VH: B1 VH with N31S, N63K, R67G, E100N, A103D, T127S
VL: B1 VL with I20F, V31S, Y34H, F38Y, N52D, N106K
notes: human IgG1, HEK (Expi293F) culture supernatant
B5: CL-141786 (antibody, V domains shown)
VH: QVQLLQSGAEVKKPGASVKVSCKASGYTFTNYAMHWLRQAPGQRLEWMGWINAGNGYTKYSQKFQGRVTITRDTSATTAYMDLSSLRSEDTAVYYCARDNYYDSNVYNSYYFYGMDVWGQGTTVTVSS
VL: B3 VL with A3V, D8A, S13P, N27S, I31N, G43D, D71N, A98T
notes: as for B4
B6: CL-141785 (antibody, V domains shown)
VH: QVQLVQSGAEVKKPGASVRVSCKASGFTFISYAMHWVRQAPGQGLEWMGWINAGDGHTKYSQKFQDRVAITRDTSATTVYMDLSSLRSEDTAVYYCSRDGFCTTTTCSDHYGMDVWGQGTTVTVSS
VL: B1 VL with V31S, F38Y, L48F, N52D, N62D, N106K
notes: as for B4
B7: CL-141779 (antibody, V domains shown)
VH: B1 VH with N31S, N63K, E100Q, A103D, S104I, G105L, S106T, Y107P, D109Y, T127S
VL: B1 VL with V31G, F38Y, N52V, N106K
notes: as for B4
B8: CL-141806 (antibody, V domains shown)
VH: QVQLVQSGAEVKKPGASVKVSCKASGYTFTNYAIHWVRQAPGQRLEWMGWINAGNGNTKYSQKFQGRVTITRDTSASTAYMELSSLRSEDTAVYYCARDNFYGSGTYFSYFFYHMDVWGQGTTVTVSS
VL: B1 VL with V31S, Y34H, F38Y, N52D, V60M, N62D, N106K
notes: as for B4
B9: CL-141802 (antibody, V domains shown)
VH: QVQLVQSGTEVKKPGASVKVSCKASGFTFSSYAMHWVRQAPGQRLEWMGWINAGNGNTKYSQKFQGRVTITRDTSASTAYMELSSLRSEDTAVYYCARDGYCSSTSCYGYYGMDVWGQGTTVTVSS
VL: B2 VL with S31A, Y51S, N54S, T55K, I62N, A66G, G70D, S91C
notes: as for B4
B10: CL-141805 (antibody, V domains shown)
VH: B1 VH
VL: B1 VL
notes: as for B4
B11: CL-141772 (antibody, V domains shown)
VH: QVQLVQSGAEVKKPGASVKVSCKASGFIFINYAMQWVRQAPGQRLEWMGWINAGNGYTKYSQKFQGRVTITRDISANTVYMELSSLRSEDTAVYYCARDGFCSTTTCSDHYGMDVWGQGTTVTVSS
VL: B1 VL with V31G, F38Y, N52D, N62D, A82T, N106K
notes: as for B4
B12: CL-141791 (antibody, V domains shown)
VH: B3 VH with Y80H, S106T
VL: B3 VL with I31V, N54S, I60V, D71N, A94V, K106N
notes: as for B4
B13: CL-141792 (antibody, V domains shown)
VH: QVQLVQSGAEVKKPGASVKVSCKASGYTFTSYAMHWVRQAPGQRLEWMGWINAGNGYTKYSQNFQGRVTITRDTSASTAYMELSSLRSEDTAVYYCARDNYFDSSVYDSSYYFYYGMDVWGQGTTVTVSS
VL: B1 VL with V31S, Y34H, F38Y, N52D, N106K
notes: as for B4
B14: CL-141790 (antibody, V domains shown)
VH: QVQLVQSGAEVKRPGASVKISCKASGYTFTNYAIHWVRQAPGQRLEWMGWINAGNGYTKYSQKFQGRVTITRDTSATSAYLELYSLISEDTAVYYCVRDEYYDSGSSNYYYYGMDVWGQGTTVTVSS
VL: B1 VL with V31N, Y34H, F38Y, G43D, N52D, N106K
notes: as for B4
B15: CL-141783 (antibody, V domains shown)
VH: QVQLVQSGAEVKKPGASVKLSCKASGYTFTNYAMHWVRQAPGQSLEWMGWINAGNGYTKYSQKFQGRVTITRDTSANTAYMDLSSLRSEDTAVYYCARDQYYDILKGYYNVDYYYGMDVWGQGTTVAVSS
VL: B1 VL with V31S, Y34H, F38Y, N52D, N62D, A94V, N106K
notes: as for B4
B16: CL-141784 (antibody, V domains shown)
VH: QVQLVQSGAEVKNPGASLKVSCKASGYTFTNYAMHWVRQAPGQRLEWMGWINAGNGYTKYSQTFQGRVTITRDTYASTAYMELSSLRSEDTAVYYCVRDEYYESGSSNYYYYGMDVWGQGTTVTVSS
VL: B1 VL with V31S, Y34H, F38Y, N52D, K55T, N106K, L107M
notes: as for B4
B17: CL-141769 (antibody, V domains shown)
VH: B3 VH with V68F, M93V, S106T
VL: B3 VL with I31V, N54S, I60V, D71N, A86S, A98T
notes: as for B4
B18: CL-141789 (antibody, V domains shown)
VH: B6 VH with A24T, I30T, M34I, H35Q, A69V, S97T
VL: B1 VL with V31S, F38Y, A45V, L48F, Y51S, N52D, V60I, N62D, S96G, N106K
notes: as for B4
B19: CL-141781 (antibody, V domains shown)
VH: B3 VH with T30S, A97S, S106T
VL: B3 VL with I31V, N54S, I60V, D71N, A94V, S96N
notes: as for B4
B20: CL-141776 (antibody, V domains shown)
VH: B6 VH with K13N, R19K, I30T, S31N, G44R, D55N, V79A, D82E, T103S
VL: B1 VL with V31G, F38Y, L48F, N52D, N106K
notes: as for B4
B21: CL-141799 (antibody, V domains shown)
VH: B2 VH
VL: B2 VL with S31A, N33K, I62T
notes: as for B4

The binders below were run against T1, Recombinant CSP (Wellcome Trust Sanger Institute, FIG. 22), CSP ectodomain with BirA biotinylation tag, … (Plasmodium falciparum strain 3D7, UniProt Q7K740 19-376, biotinylated at the BirA substrate peptide) (assay: SPR (ProteOn), biotinylated CSP on NLC chip, Fab as analyte, 25 C, 1:1 fit).
T1 construct: extracellular domain; Expressed in HEK293, 45 kDa; order of the tags is that of the legend, not confirmed; also called biotinylated recombinant CSP

First: B1
Second: B2
The Kd of the first is 4.2-fold higher: 52 nM for the first, 12.5 nM for the second.

Work on B3 yielded a Kd of 31.6 nM.

First: B1
Second: B2
The koff of the first is 5.3-fold higher: 0.00249 s⁻¹ for the first, 0.000473 s⁻¹ for the second.

B3 gave a koff of 0.00079 s⁻¹.

B1 and B2 are within 1.5-fold of each other in kon: 48000 M⁻¹ s⁻¹ for the first, 37900 M⁻¹ s⁻¹ for the second.

B3 was tested, and the kon was 25000 M⁻¹ s⁻¹.

The binders below were run against T2, full CSP protein (analyte of Example 12) (Plasmodium falciparum (isolate 3D7), UniProt Q7K740 19-374) (assay: SPR, IgG1 from supernatant on anti-human IgG surface, CSP as analyte, 25 C, 1:1 fit).
T2 construct: not shown: C-terminal tags

B4 and B5 are within 1.5-fold of each other in kon: 528000 M⁻¹ s⁻¹ for the first, 457000 M⁻¹ s⁻¹ for the second.

Compared with B6, B7 is 1.9-fold lower in kon: 573000 M⁻¹ s⁻¹ for the first, 298000 M⁻¹ s⁻¹ for the second.

B8 and B9 are within 1.5-fold of each other in kon: 284000 M⁻¹ s⁻¹ for the first, 313000 M⁻¹ s⁻¹ for the second.

Compared with B10, B11 is 3.5-fold lower in kon: 1.19e+06 M⁻¹ s⁻¹ for the first, 338000 M⁻¹ s⁻¹ for the second.

Going from B12 to B13, the kon falls from 253000 M⁻¹ s⁻¹ to 51300 M⁻¹ s⁻¹ (4.9-fold).

Going from B14 to B15, the kon falls from 428000 M⁻¹ s⁻¹ to 128000 M⁻¹ s⁻¹ (3.3-fold).

Compared with B16, B17 is 3.5-fold lower in kon: 541000 M⁻¹ s⁻¹ for the first, 156000 M⁻¹ s⁻¹ for the second.

B18 and B19 are within 1.5-fold of each other in kon: 293000 M⁻¹ s⁻¹ for the first, 221000 M⁻¹ s⁻¹ for the second.

Compared with B20, B21 is 3.4-fold higher in kon: 143000 M⁻¹ s⁻¹ for the first, 486000 M⁻¹ s⁻¹ for the second.
